{
  "source": "paper PMC11147780",
  "about": "“Vaccination induces broadly neutralizing antibody precursors to HIV gp41” (Nature Immunology, 2024)",
  "data": [
    {"target": "T1, 10E8-GT10.2 epitope scaffold (designed scaffold 10E8-GT10.2 with …, N-linked glycosylation sites added (positions not given))", "T1 chain": "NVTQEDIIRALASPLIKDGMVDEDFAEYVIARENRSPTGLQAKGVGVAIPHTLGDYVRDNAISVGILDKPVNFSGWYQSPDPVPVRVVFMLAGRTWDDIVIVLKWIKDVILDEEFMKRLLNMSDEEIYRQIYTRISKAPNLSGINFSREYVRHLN", "units": {"Kd": "nM"}, "values": [
      {"binder": "MPER18_d21_45.1_v55_m3_F03 (antibody, V domains shown) VH: EVQLQQSGPVLVKPGPSLKISCKASGFTITDYYMHWVKQTHGKSLAWIGLLYPYNGGTSYNQKFKGKATLTVDTSSSTAYMELNSLTSDDSAVYYCAREGHYDRKGYFDVWGTGTTVTVSS VL: DIVMTQSHKFMSTSVGDRVSITCKASQDVSTAVAWYQQKPGQSPKLLIYWASTRHTGVPDRFTGSGSGTDYTLIISSVQAEDLALYYCQQHYSIPFTFGSGTKLEIK", "Kd": 31.2},
      {"binder": "MPER18_d21_45.2_v55_04 (antibody, V domains shown) VH: QVQLQESGPGLVKPSETLSLTCTVSGDSISSYYWNWIRQPPGKGLEWIGYFYYYGSTNYNPSLKSRVTISVDTSKNQFSLNLSSVTAADTAVYYCAREPPYYDFWSGLSMGVDTFDIWGQGTMVTVSS VL: DVVMTQTPLSLPVSLGDQASISCRSSQSLVHSNGNTYLHWYLQKPGQSPKLLIYKVSNRFSGVPDRFSGSGSGTDFTLKISRVEAEDLGVYFCSQSTHVPRTFGGGTKLEIK", "Kd": 563},
      {"binder": "MPER18_d21_45.2_v55_12 (antibody, V domains shown) VH: QVQLQESGPGLVTPSETLSLTCTVSGDSISSYYWNWIRQPPGKGLEWIEYMFYSGSTNYNPSLKSRVTISVDTSKNQFSLKLSSVTAADTAVYYCAREPPYYDFWSGLSMGVGAFDIWGQGTMVTVSS VL: DIVMTQSPLSLPVSLGDQASISCRSSQSIVHSNGYTYLDWYLQRPGQSPKLLIYKVSNRFSGVPDRFSGSGSGTDFTLKISRVEAEDLGVYYCFQGSHVPYTFGGGTKLEIK", "Kd": 0.662},
      {"binder": "MPER18_d21_45.2_v55_15 (antibody, V domains shown) VH: QVQLQESGPGLVKPSETLSLTCTVSGGSISSYSWSWIRQPPGKGLEWIGYISYSGSTNYNPSLKSRVTISVDTSKSQFSLKLSSVTAADTAVYYCAREPPYYDFWNELSMGVGAFDIWGQGTMVTVSS VL: DVLMTQIPLSLPVSLGDQASISCRSSQSIVQNNGNTFLEWFLQKPGQSPKLLIYRVSNRFSGVPDRFSGSGSGTDFTLKISRVEAEDLGVYYCFQGSHVPWTFGGGTKLEIK", "Kd": 9.89},
      {"binder": "MPER18_d21_45.2_v55_17 (antibody, V domains shown) VH: QVQLQESGPGLVKPSETLSLTCTVSGGSISSYFWSWIRQPPGKGLEWIGYIYNSGSTNYHPSLKSRVTISVDTSKNQFSLKLSSVTAADTAVYYCAREPPYYDFWSGLSMGVGAFDIWGQGTMVTVSS VL: DVLMTQTPLSLPVSLGDQASISCRSSQSIVHSSGNTYLEWYLQKPGQSPKLLIYKVSNRFSGVPDRIGGSGSGTDFTLKISRVEAEDLGVYFCFQGSHVPWTFGGGTKLEIK", "Kd": 13.2},
      {"binder": "MPER18_d21_45.2_v55_21 (antibody, V domains shown) VH: QVQLQESGPGLVKPSETLSLTCTVSGGSISSYYWSWIRQPPGKGLEWIGYISYSGSTNYNPSLKSRVTISVDTSKNQFSLKLSSVTTADTAVYYCAREPPYYDFWNELSMGVGAFDIWGQGTMVTVSS VL: DVLMTQIPLSLPVSLGDQASISCSSSQSIVQNNGNTFLEWFLQKPGQSPKLLIYRVSNRFSGVPDRFSGSGSGTDFTLKISRVEAEDLGVYYCFQGSHVPWTFGGGTKLEIK", "Kd": 2.21},
      {"binder": "MPER18_d21_45.2_v55_22 (antibody, V domains shown) VH: QVQLQESGPGLVKPSETLSLTCTVSGGSISSYYWSWIRQPPGKGLEWIGYIYYSGSTNYNPSLKSRVTISVDTSKNQFSLKLSSVTAADTAVYYCAREPPYYDFWGGLFMGVGAFDIWGQGTMVTVSS VL: DVLMTQTPLSLPVSLGDQASISCRSSQSIVHSNGNTFLEWYLQKPGQSPNLLIYRVSNRLSGVPDRFSGSGSGTDFTLKISRVEAEDLGVYYCFQGSHVPWTFGGGTKLEIK", "Kd": 2.87},
      {"binder": "MPER18_d21_45.2_v55_24 (antibody, V domains shown) VH: QVQLQESGPGLVKPSETLSLTCTVSGGSISSYYWSWIRQPPGKGLEWIGYIYYSGSTNYNPSLKSRVTISVDTSKNQFSLKLSSVTAADTAVYYCAREPPYYDFWSGLSMGVGAFDIWGQGTLVTVSS VL: DVLLTQSPLALPVSLGDQASISCRSSQSIVHSNGYTYLEWYLQKPGQSPKLLVYKVSNRFSGVPDRFSGSGSGTDFTLKISRVETEDLGVYYCFQGSHVPYTFGGGTKLEIK", "Kd": 0.249},
      {"binder": "MPER18_d21_45.2_v55_m15_A04 (antibody, V domains shown) VH: QVQLQESGPGLVKPSETLSLTCTVSGGSISSYYWSWIRQPPGKGLEWIGYIFYSGSTNYNPSLRSRVTISVGTSKNQFSLKLNSVTAADTAVYYCAREPPYYDFWSGLSMGMGAFDIWGQGTMVTVSS VL: DILMTQSPLSLPVSLGDQASISCRSSQSIVHSNGNSYLEWYLQKPGQSPKLLIYKVSNRFSGVPDRFSGSGSGTDFTLKISRVEAEDLGVYYCFQGSHIPWTFGGGTKLEIK", "Kd": 14.1},
      {"binder": "MPER18_d21_45.2_v55_m15_A06 (antibody, V domains shown) VH: QVQLQESGPGLVKPSETLSLACTVSGGSFSSSYWSWIRQPPGKGLEWIGYIYYSGSTNYNPSLKSRVTMSVDTSKNQFSLKLSSVTAADTAVYYCAREPPYYDFWSGLSMGVGAFDIWGQGTMVTVSS VL: DVLMTQSPLSLSVSLGDQASISCRSSQSVVHSNGNTYLEWYLQQPGQSPKLLIYKVSNRFSGVPDRFSGSGSGTDFTLKISRVEAEDLGVYYCFQGSHVPWTFGGGTKLEIK", "Kd": 86.1},
      {"binder": "MPER18_d21_45.2_v55_m15_C05 (antibody, V domains shown) VH: QVQLQESGPGLVKPSETLSLTCTVSGGSISSYCWSWIRQSPGKGLEWIGYIYYSGSINHNPSLKSRVTISADTSKNQFSLKLSSVTAADTAVYYCAREPPYYDFWSGLSMGVGAFDIWGQGTMVTVSS VL: DIVMTQSPLSLPVSLGDQASISCRSSQSLVHNNGNTYLHWYLQQPGQSPKLLIYNFSNRFSGVPDRFSGSGSGTDFTLKISRVEAEDLGVYFCSQSTHVPRTFGGGTKLEIK", "Kd": 401},
      {"binder": "MPER18_d21_45.2_v55_m15_C11 (antibody, V domains shown) VH: QVQLQESGPGLVKPSETLSLTCTVSGGSISSYYWNWIRQPPGKGLEWIGYIFYSGTTNYNPSLKSRVTISVDTSKNQFSLKVRSVTAADTAVYYCAREPPYYDFWSGLSMGVGSFDIWGQGTMVTVSS VL: DIVMTQSPLSLPVSLGDQASISCRSSQTIVYSSGYTYLEWYLQKPGQSPKLLIYKVSNRFSGVPDRFSGSGSGTDFTLKISRVEAEDLGVYFCFQGSHVPWTFGGGTKLEIK", "Kd": 6.91},
      {"binder": "MPER18_d21_45.2_v55_m15_D04 (antibody, V domains shown) VH: QVQLQESGPGLVKPSETLSLTCTVSGGSISGYYWSWIRQPPGKGLEWIGYIYYSGSTNYNPSLKSRVTISVDTSKNQFSLKLSSVTAADTAVYYCAREPPYYDFWSGLSMGVGAFDFWGQGTMVTVSS VL: DVLMTQSPLSLPVSLGDQASISCRSSQSIVHSNGNTYLEWYLQKPGQSPKLLIYKVSNRFSGVPDRFSGSGSGTDFTLRISRVEAEDLGVYYCFQGSHVPCTFGGGTKLEIK", "Kd": 21.9},
      {"binder": "MPER18_d21_45.2_v55_m15_D07 (antibody, V domains shown) VH: QVQLQESGPGLVRPSETLSLTCTVSGGSISSYYWSWIRQPPGKGLEWIGYIYYSGSTNYNPSLKSRVTISVDTSKNQFSLKLNSVTAADTAVYYCTREPPYYDFWSELSLGVGAFDIWGQGTMVTVSS VL: DIVMTQSPLSLPVSLGDQASISCRSSQTIVHSNGYTYLEWYLQKPGQSPKLLIYKVSNRFSGVPDRFSGSGSGTDFTLKISRVEAEDLGVYYCFQGSHVPWTFGGGTKLEIK", "Kd": 2.79},
      {"binder": "MPER18_d21_45.2_v55_m15_E09 (antibody, V domains shown) VH: QVQLQESGPGLVKPSETLSLTCTVSGGSISNYYWSWIRQPPGKGLEWIGYFYYSGTTNYNPSLKSRVTISVDTSKNQFSLKLSSVTAADTAVYYCAREPPYYDFWSGLSMGVGAFDIWGQGTMVTVSS VL: DVLMTQTPLSLPVSLGDQASISCRSSQSIVYSNGYTYLEWYLQKPGQSPKLLIYKVSNRFSGVPDRFSGSGSGTDFTLKISRVEAEDLGVYYCFQGSHVPWTFGGGTKLEIK", "Kd": 14.8},
      {"binder": "MPER18_d21_45.2_v55_m5_D04 (antibody, V domains shown) VH: QVQLQESGPGLVKPSETLSLTCTVSGGSISSYYWSWIRQPPGKGLEWIGHIYYSGSTNYNPSLKGRVTISVDTSKNQFSLKLTSVTAADTAVYYCAREPPYYDFWSGLSMGVGAFDIWGQGTMVTVSS VL: DVLMTQTPLSLPVSLGDQASISCRSSQSIVHSNGYTYVEWYLQKPGQSPKLLIYKVSNRFSGVPDRFTGSGSGTDFTLKISRVEAADLGVYYCFQGSHVPYTFGGGTKLEIK", "Kd": 0.714},
      {"binder": "MPER18_d21_45.2_v55_m5_E10 (antibody, V domains shown) VH: QVQLQESGPGLVKPSETLSLTCSVSGGSISGYYWSWIRQPPGKGLEWIGYIFYSGSTNYNPSLKSRVTISVDTSKNQFSLKLTSVTAADTAVYYCAREPPYYDFWSGLSMGVGAFDIWGQGTMVTVSS VL: DIVMTQTPLSLPVSLGDQASISCSSSQNIVHSNGYTYLEWYLQKPGQSPKLLIYKVSNRFSGVPDRFSGSGSGTDFTLKISRVEAEDLGVYYCFQGSHVPYTFGGGTKLEIK", "Kd": 0.571},
      {"binder": "NHP-10E8_MPER-GT10v55_W21-01 (antibody, V domains shown) VH: EVRLVESGGGLVQPGGSLRLSCAASGFTFSDYYMSWVRQAPGKGPEWVGFIRNKANGGTAEYAASVKGRFTISRDDSKSIASLQMNSLKTEDTAVYYCARAPLHYNFWSGYYTDYGLDSWGQGVVVTVSS VL: DIVMTQSPDSLAVSLGERVTINCKSSQSLLYSSNNKNYLAWYQQKPGQAPKLLIYWASTRESGVPNRFSGSGSGSDFTLTISGLQAEDVAVYYCQQYYSTPHSFGQGTKVEIK", "Kd": 6750},
      {"binder": "NHP-10E8_MPER-GT10v55_W21-02 (antibody, V domains shown) VH: EVQLVESGGGLVQPGGSLRLSCAASGFTFSNYWMSWVRQAPGKGLEWVGFIKNKADGGTAAYAESVKGRFTISRDDSKNTLYLQMNSLKTEDTAVYYCARAGAPYYNFWSGYYESYDAFDFWGQGLRVTVSS VL: QPVLTQPTSLSASPGASARLTCTLRSGISVGSYRIFWYQQKPGSPPRYLLNYHTDSDKHQGSGVPSRFSGSKDASANAGILLISGLQSEDEADYYCMIWHNNAVLFGGGTRLTV", "Kd": 4560},
      {"binder": "NHP-10E8_MPER-GT10v55_W21-03 (antibody, V domains shown) VH: EVHLVESGAGLVQPGGSLRLSCAASGFTFRNSWMSWVRQAPGKGLEWIARIKRKADGETTDYAASVKGRFTLSRDDSKNTVYLQMDSLKTEDTAVYYCTTDQGYYNFWSGNYDYYGLDSWGQGVVVAVSS VL: DIQMTQSPSSLSAFVGDRVTITCRASQGISTHLNWYQQKPGKAPKRLIYTSSNLETGVPSRFSGSGSGTDFTLTISSLQPEDFATYYCLQYNSDPWTFGQGTKVEIK", "Kd": 8320},
      {"binder": "NHP-10E8_MPER-GT10v55_W10-10 (antibody, V domains shown) VH: EVQVVESGGGLVQPGGSLRLSCAASGFTFSDYAMDWVRQAPGKGLEWVGFIRSKDYGGTAEYAASVKGRFTISRDDSKNTAYLQMSSLKTEDTAVYYCTRDRRYYSFWSGYDRGWYFDLWGQGALVTVSS VL: DIVMTQTPLSLPVTLGEPASISCRSSQSLLNSEDGNTSLAWYLQKPGQSPQLLIYEVSNRASGVPDRFSGSGSDTDFTLKISRVEAEDVGVYYCMQPLEFPPTFGQGTKVEIK", "Kd": 95.6}
    ]}
  ]
}
